The nanobody polyreactivity screen of Harvey et al. (2022)

Assay: yeast display, Sf9 membrane polyspecificity reagent, FACS + sequencing; frameworks hold sequencing errors
Procedure, shortened: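 Genes from sorted yeast were amplified by colony PCR, read by MiSeq 2 × 250 sequencing and filtered on CDR length. These cells carried a synthetic nanobody library in Saccharomyces cerevisiae BJ5465 and were sorted by FACS into low and high (top ~1%) gates on anti-HA and streptavidin fluorescence. Polyreactivity is labelled according to the gate of origin.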

QVQLEESGGGLVQAGGRLRLSCAASGSTFDPNTMGWYRQAPGKERELVATITSVDSTNYADSVKGRFTISRDNAKNTVYLQMNSLKPEDTAVYYCNAAYGGVFFYAYDYWGQGTQVTVSS
polyreactivity (PSR sort gate): low polyreactivity

QVQLVESGGGLVQAGGSLRLSCAASGFTFRTNAMGWYRQAPGKEREFVATITRRGGSTYYADSVKGRFTISRDNAKKTVYLQLNSLKPEDTAVYYCNAVFSSQEYEYWGQGTQVTVSS
polyreactivity (PSR sort gate): high polyreactivity

QVQLVESGGGLVQAGGSLRLSCAASGLPFRYNVMGWYRQAPGKETALGATISTSAGDTYYADSVKGRFTISRDNAKNTVYLQMNSLKPEDTAVYYCNAEAWYSVEYDDWGQGTQVTVSS
polyreactivity (PSR sort gate): low polyreactivity

QVQLVESGGGLVQAGGSLRLSCAASGRTLRSNAMGWYRQAPGKERELVAAISSNGGSTYYADSVKGRFTISRDNAKNTVYLQMNSLKPEDTAVYYCAALSYYYSDRMDYWGQGTQVTVSS
polyreactivity (PSR sort gate): low polyreactivity

QVQLVESGGGLVQAGGSLRLSCAASGRISFRYAMGWYRQAPGKERELVAAINRGGITNYADSVKGRFTISRDNAKNTVYLQMNSLKPEDTAVYYCAARYASPRYKSKIAYWGQGTQVSVSS
polyreactivity (PSR sort gate): high polyreactivity

QVQHVESGGGLVQAGGSLRLSCAASGFTFAWNAMGWYRQAPGKERELVAAITWGDNSTYYADSVKGRFTISRDNAKNTVYLQMNSLKPEDTAVYYCAARVTHWYYLFGYDYWGQATQVTVSS
polyreactivity (PSR sort gate): low polyreactivity

QVQLVESGGGLVQAGGSLRLSCAASGSILSAYAMGWSRQAPGKERELVAAISWSGGSTYYADSVKGRFTISRDNAKNTVYLQMNSLKPEDTAVYYCATVNKKWRRYDYWGQGTQVTVSS
polyreactivity (PSR sort gate): high polyreactivity

QVQLVESGGGLVQAGGSLRLSCAASGSTLAKKAMGWYRQEPGKERELVAAISKNGGTTYYADSVKGRFTISRDNAKNTVYLQMNSLKPEDTAVYYCAVSIWGWFASGFDYWGQGTQVTVSS
polyreactivity (PSR sort gate): high polyreactivity

QVQLVESGGGLVQAGGSLRLSCAAAGITFKWNAMGWYRQAPGKERELVAVISSDGRTYYADSVKGRFTSSRDNAKNTVYLQMNSLKPEDTAVYYCARSHSYYPAGPYYYWGQGTQVTVSS
polyreactivity (PSR sort gate): low polyreactivity

QVQLVESGGGLVQAGGSLRLSCAASGRTFGRYAMGWYRQAPGKERELVADITGGGSTNYADSVKGRFTISRDNAKNTVYFQMNSLKPEDTAVYYCNAGILSRWVRKYYYWGQGTQVTVSS
polyreactivity (PSR sort gate): low polyreactivity

QVQLVESGGGLVQAGGSLRLSSAASGGTFWIYAMGWYRQAPGKERELVSGITTSGATTYYADSVKGRFTISRDNAKNTVYLQMNRLKPEDTAVYYCAADEYYRYEYWGQGTQVTESS
polyreactivity (PSR sort gate): low polyreactivity

QVQLVESGGGLFQAGGSLRLSCAASGITFPDYAMGWYRQAPGKERELVATISSSGGNTYYADSVKGRFTISRDNAKNTVYLQMNSLKPEDTAVYYCATVSYYLGYDYWGQGTQVTVSS
polyreactivity (PSR sort gate): low polyreactivity

QVQLVESGGGLVQAGGSLRLSCAASGIIFWYNAMGWYRQAPGKERELVAAITYSGGSTYYADSVKGRFTISRDNAKNTVYLQMNSLKPEDTAVYYCAADGYSRYASGGYEYWGQGTQVTVSS
polyreactivity (PSR sort gate): low polyreactivity

QVQLVESGGGLVQAGGSLRLSCAASGSTFSSNAMGWYRQAPGKERELVAAITGSGGSTYYADSVKGRFTISRDNAKNTVYLQMNSLKPEDTAVYYCAAKWYGITYKYEYWGQGTQVTVSS
polyreactivity (PSR sort gate): high polyreactivity

QVQLVESGGGLVQARGSLRLSCAASGSIFSYYARGLYRQAPGKESELVAAITRGGTTYYADSVKGRFTISRDNAKNSVYLQMNSLKPEDTAVYYCAVYYYSGTAGYRYGYWGQGSQVTVSS
polyreactivity (PSR sort gate): high polyreactivity

QVQLVESGGGLVQAGGSLRLSCAASAIIFRFYAMGWYRQAPGKERELVPAISSGGSTYYADSVKGRFTISRDNAKNTVYLQMNSLKPEDTAVYYCNARVRYKRTGRYGYWGQGTQVTVSS
polyreactivity (PSR sort gate): high polyreactivity

QVQLVESGGGLVQAGGSLRLSCAASGRIGRYAMGWYRQAPGKERELVAVITSGDSTYYADSVKGRFTISRDNAKNTVYLQMNSLTPEDTAVYYCAADSYRRWGNLFTGNEYDSWGQGTQVTVSS
polyreactivity (PSR sort gate): low polyreactivity

QVQLVESGGGLVQAGGSLRLSCAASGRTFRRNVMGWYRQAPGKERELVAAISTRGGDTYYADSVKGRFTISRDNAKNTVYLQMNSLKPEDTAVYYCAAEYTYGYDYWGQGTQVTVSS
polyreactivity (PSR sort gate): high polyreactivity

QVQLEESGGGLLQAGGSLRLSCAASGRTLGGYTMGWYRPAPGKERELVSAITTGGSTNYADSVKGRFTISRDNAKNTVYLQMNSLKPEDTAVYFCATELVFDKRYWYDYWGQGSQVTVSS
polyreactivity (PSR sort gate): low polyreactivity

QVQLVVSGGGLVQAGGSLSLSWDASGRTFARYTMGWYRQAPGKERELVASITRGGSPYYADSVKGRFTISRDNAKNYVYLQMNSLKAEDSSVFYCAARFPQHNYWAMDYCGQGTQVTVSS
polyreactivity (PSR sort gate): high polyreactivity

QVQLVESGGGLVQAGGSLRLSCAASGSIFHIYMGWYRQSPGKERELVASNSYRGGTTYYADSVKGRFTISRDNAKNTVYLQMNSLKPEDTAVYDCNVDRYFYHYGRYGHMDYWGQGTQVTVSS
polyreactivity (PSR sort gate): low polyreactivity

QVHLVESGGGLVQAGGRLRLSCAASGFIFWSNAMRWYRQAPGKERELVAAITWNGGDTYYADSVKGRFTISRDNAKNTVYLQMNSLKPEDTAVFYCAAVPSRRARYDYWGQGTQVTVSS
polyreactivity (PSR sort gate): low polyreactivity

QVQLVESGGGLVQAGGSLRLSCAASGLTFPWYAMGWYRQAPGKERELVASINSSTGSTYYADSVKGRFTISRDNAKNTVYLQMNSLKPEDTAVYYCAAVEYGNMDWGQGTQVTVSS
polyreactivity (PSR sort gate): low polyreactivity

QVQLVESGGGLVQAGGSLRLSCAASGIIFYGYVMGWYRQAPGKERELVAAISKSGGSTYYADSVKGRFTISRDIAKNTVYLQMNSLIPEDTAVYYCAAERKSFYRYNYWGQGTQVSVSS
polyreactivity (PSR sort gate): high polyreactivity

QVHLVESGGGLVQAGGSLRLSCAASGSTFYNNAMGWYRQAPGKERELVAAINYSGGSTNYADSVKGRFTISRDNAKNTVYLQMNILKPEDTAVYYCATDLHWLVTKYGYWGQGTQVTVSS
polyreactivity (PSR sort gate): low polyreactivity

QVQLVESGGGLVQAGGSLRLSCAASGSIFGFKVMGWYRQEPGKERELVAAITYSGGSTYYADSVKGRFTISRANAKNTVYIQMNSLKPEDTAVYYCAADTFTPYWWYSSLDEYWGQGTQVTVSS
polyreactivity (PSR sort gate): high polyreactivity

QVQLVESGGGLVQAGGSLRLSCAASGSIFSRYTMGWYRQAPGKERELVAAISSGGSTNYADSVKGRFTISRDNAKNTVYLQMNRLKPEDTAVYYCAARSYRYYYGFDYWGQGTQVTVSS
polyreactivity (PSR sort gate): low polyreactivity

QVQLVESGGGLVQAGGSLRLSCAASGRILGWNAMGWYRQAPGKERELVAAISTSGTDTYYADSVKGRFTISSDNAKNTVYLQMNCLIPEDTAVYYCAADTVTIYWGLSVSYGCWGQGTQVTVSS
polyreactivity (PSR sort gate): low polyreactivity

QVQLVESGGGLVQAGGSLRLSCAASGFTFLYNTMGWYRQAPGKERELVAAISIRGGSTYYADSVKGRFTISRDNAKNTVYLQMNSLKPEETAVYYCAARTPPPSSRSRVYYWGLGTQVTVSS
polyreactivity (PSR sort gate): high polyreactivity

QVQLVESGGGLVQAGGSLRLSCAASGSIFVPYAMGWYRQAPGKERELVAAISRGGDTNYADSVKGRFTISRDNAKNTVYLQMNSLKPEDTAVYYCNRARHQSSRWHGGYYYWGQGTQVTVSS
polyreactivity (PSR sort gate): low polyreactivity

QDQLVESGGGLVQAGGSLRLSCAASGFTFARNGMGWYRQAPVKEREFVAAITRSGGRTYYADSVKGRFTISRDNAKNTVYLQMNSLKPQDTAVYYCAAATSYGKSEYDYWGQGTQVTVSS
polyreactivity (PSR sort gate): high polyreactivity

QVQLVESGGGLVQAGGSLRLSCAASGRIFAYYAMGWYRQAPGKERELVASISSSGVSTYYADSVKGRFTISRDNAKNTVYLQMNSLKPEDTAVYYCAARQFSWDSQRYRHRYDYWGQGTQVTVSS
polyreactivity (PSR sort gate): high polyreactivity

QVQLVESGGGLVQAGGSLRLSCAASGRIFSYNAMGWDRQAPGKERELVSAISYGGGRTYYADSVKGRFTISRYNAKNTVYLQMNSLKPEDTAVYYCNRYGRQYDFFYWGQGTQVTGSS
polyreactivity (PSR sort gate): high polyreactivity

QVQLVESGGGLVQAGGSLRLSCAASGFTFGSNTMGWYRQAPGKERELVAAITTSGDSTYYADSVKGRFTISRDTAKNTVYLQMNSLKPEDTAVYYCAAERRYGRYYRLVRLLGQGTQVTVSS
polyreactivity (PSR sort gate): high polyreactivity

QVQLVESGGGLVQAGGSLRLSGAASGRIFGTYDMGWYRQAPGKERELVAAINRSAGSTYYADSVKGRITISRDNAKNTVYLQMNSLKPEDTAVYYCAKQPLLFQYLEYDYWGQGTQVTVSS
polyreactivity (PSR sort gate): low polyreactivity

QVQLVESGGGLVQAGGSLRLSCAASGSIFFSNVMGWYRQAPGKERELVAAIRWSGDSTYYADSVKRRFTISRDNAKNTVYLQMNSLKPEDTAVYYCARDVYGSVSVSGYYYWGQGTQVTVSA
polyreactivity (PSR sort gate): low polyreactivity

QVQLVESGGGLVQAGGSLRLSCAASGSTFAYYAMGWYRQAPGKERELVAAISYSGGITYYADSVKGRFTISRDNAKNTVYLQMNSLKPEDTAVYYCNKLFAQEFDYWGQGTQVTVSS
polyreactivity (PSR sort gate): high polyreactivity

QVQLVESGGGLVQAGGSLRLSCAASGRTFTIYAMGWYRQAPGKERELVAAISSSSGSTYYADSVKGRFTISRDNAKNTVYLQMNSLKPEDTAVYYCAARTTYRSSKRYGYWGQGTQVTVSS
polyreactivity (PSR sort gate): high polyreactivity

QVQLVESGGRLVQAGGSLRLSCAASGSIFRYYALGWYRQAPGKERELVAAISWSGGSTYYADSVKGRFTISRDNAKNTVYLQMNSLKPEDTAVYYCATTPGVWSTGGTNGFGYWGQGNQVTVSS
polyreactivity (PSR sort gate): high polyreactivity

QVQLVESGAGLVQAGGSLRLSCAASGFTFYPYAMGLYRQAPGKERELVAAINSGGSTYYADSVKGRFTISRDNAKNTVYLQMNSLKPEDTAVYYCAAYGKRGAVAFYYWGQGTQVTVSS
polyreactivity (PSR sort gate): high polyreactivity

QVQLVESGGGLVQAGGSLRLSCAASGSIFWPYAMGWYRQAPGKEREFVAAITWSGGSTYYADSVKGRFTISRDNAKNTVYLQMNSLKPEDTAVYYCAAEITWYYHDFGYWGQGTQVTVSS
polyreactivity (PSR sort gate): high polyreactivity

QVQLVESGGGLVQAGGSLRLSCAASGITFERNAMGWYRQAPGKERELVAAITGRGTSTYADSVKGRFTISRDNAKNTVYLQMNSLKPEDTAVYYCAAVGWFADFLFSDINGYYWGQGTQVTVSS
polyreactivity (PSR sort gate): low polyreactivity

QVQLVESGGGLVQAGGSLRLSCAASGITFDDYAMGWYRQAPGKERELVAAISVSGGDTYYADSVKGRFTISRDNAKNTVYLQMNSLKPEDSAVYYCAAEEVSPRWYDYWGLGTQVTVSS
polyreactivity (PSR sort gate): low polyreactivity
